From paper PMC5737834
“And” between values parts separate entries of the source, which are not always exact repeats. Identical values can stand only once.

Biological target: Recombinant human SP-A1 (SP-A1^hyp) (human) (UniProt Q8IWL2)
Assay: native gel or EMSA + AUC

Question: How did the stoichiometry N turn out when “Recombinant human SP-A1 (SP-A1^hyp) (from UniProt Q8IWL2 21-248) (natural protein)” was run?
Answer: Its stoichiometry N is 3 and 6.
